Data taken from US20240132591A1 (PANDION OPERATIONS, published 2024).
Positions count from the first letter of the chain named. Where “and” joins values, the source holds several entries; their conditions need not be identical. Equal entries are not always repeated.

T1: Human MAdCAM (human, UniProt Q13477 19-317, limits assumed)
T1 construct: also called huMAdCAM; human MAdCAM-1
T1 sequence (looked up): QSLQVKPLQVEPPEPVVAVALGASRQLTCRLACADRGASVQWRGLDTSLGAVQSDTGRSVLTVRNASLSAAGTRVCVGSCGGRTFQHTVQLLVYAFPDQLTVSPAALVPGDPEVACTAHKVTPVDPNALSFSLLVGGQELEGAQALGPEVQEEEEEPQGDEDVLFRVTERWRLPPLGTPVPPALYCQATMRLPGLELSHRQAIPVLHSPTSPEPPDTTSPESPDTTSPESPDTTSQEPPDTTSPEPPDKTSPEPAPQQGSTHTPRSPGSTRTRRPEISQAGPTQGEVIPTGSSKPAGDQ

T2: mouse MAdCAM (mouse, UniProt Q61826 22-365, limits assumed)
T2 construct: also called mouse MAdCAM-1
T2 sequence (looked up): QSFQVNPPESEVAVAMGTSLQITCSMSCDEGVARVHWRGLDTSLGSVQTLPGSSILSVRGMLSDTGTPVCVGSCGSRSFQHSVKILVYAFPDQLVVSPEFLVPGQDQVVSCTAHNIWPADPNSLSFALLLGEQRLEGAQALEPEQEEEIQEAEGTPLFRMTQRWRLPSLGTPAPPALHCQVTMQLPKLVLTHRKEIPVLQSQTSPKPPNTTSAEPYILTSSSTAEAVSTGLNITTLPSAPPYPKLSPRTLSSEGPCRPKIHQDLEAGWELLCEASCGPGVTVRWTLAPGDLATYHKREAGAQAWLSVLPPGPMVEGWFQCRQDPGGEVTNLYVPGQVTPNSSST

B1: MIAB170 (antibody, human IgG1, kappa)
heavy: EVQLLESGGGLVQPGGSLRLSCAASGFTFSDFWMHWVRQAPGKGLEWISYISGDSGYTNYADSVKGRFTISRDNSKNTLYLQMNSLRAEDTAVYYCARDRPYYYWMDVWGKGTTVTVSSASTKGPSVFPLAPSSKSTSGGTAALGCLVKDYFPEPVTVSWNSGALTSGVHTFPAVLQSSGLYSLSSVVTVPSSSLGTQTYICNVNHKPSNTKVDKKVEPKSCDKTHTCPPCPAPEAAGAPSVFLFPPKPKDTLMISRTPEVTCVVVDVSHEDPEVKFNWYVDGVEVHNAKTKPREEQYNSTYRVVSVLTVLHQDWLNGKEYKCKVSNKALPAPIEKTISKAKGQPREPQVYTLPPSREEMTKNQVSLTCLVKGFYPSDIAVEWESNGQPENNYKTTPPVLDSDGSFFLYSKLTVDKSRWQQGNVFSCSVMHEALHNHYTQKSLSLSPGGGGGSAPTSSSTKKTQLQLEHLLLDLQMILNGINNYKNPKLTRMLTFKFYMPKKATELKHLQCLEEELKPLEEALNLAPSKNFHLRPRDLISDINVIVLELKGSETTFMCEYADETATIVEFINRWITFSQSIISTLT
light: DIQMTQSPSSLSASVGDRVTITCRASQSVSRSLAWYQQKPGKAPKLLIYAASSLQSGVPSRFSGSGSGTDFTLTISSLQPEDFATYYCQQYKSYPVTFGQGTKVEIKRTVAAPSVFIFPPSDEQLKSGTASVVCLLNNFYPREAKVQWKVDNALQSGNSQESVTEQDSKDSTYSLSSTLTLSKADYEKHKVYACEVTHQGLSSPVTKSFNRGEC
B2: PMAB1 (bispecific antibody, human IgG1, kappa)
heavy: EVQLLESGGGLVQPGGSLRLSCAASGFTFSNSDMSWVRQAPGKGLEWVSGITISGGSTYYADSVKGRFTISRDNSKNTLYLQMNSLRAEDTAVYYCARGRGGSGWLDYWGQGTLVTVSSASTKGPSVFPLAPSSKSTSGGTAALGCLVKDYFPEPVTVSWNSGALTSGVHTFPAVLQSSGLYSLSSVVTVPSSSLGTQTYICNVNHKPSNTKVDKKVEPKSCDKTHTCPPCPAPEAAGAPSVFLFPPKPKDTLMISRTPEVTCVVVDVSHEDPEVKFNWYVDGVEVHNAKTKPREEQYNSTYRVVSVLTVLHQDWLNGKEYKCKVSNKALPAPIEKTISKAKGQPREPQVYTLPPSREEMTKNQVSLTCLVKGFYPSDIAVEWESNGQPENNYKTTPPVLDSDGSFFLYSKLTVDKSRWQQGNVFSCSVMHEALHNHYTQKSLSLSPGGGGGSGGGGSGGGGSEVQLLESGGGLVQPGGSLRLSCAASGFTFSDFWMHWVRQAPGKGLEWISYISGDSGYTNYADSVKGRFTISRDNSKNTLYLQMNSLRAEDTAVYYCARDRPYYYYMDVWGKGTTVTVSSGGGGSGGGGSGGGGSGGGGSDIQMTQSPSSLSASVGDRVTITCRASQSVSRSLAWYQQKPGKAPKLLIYAASSLQSGVPSRFSGSGSGTDFTLTISSLQPEDFATYYCQQYKSYPVTFGQGTKVEIK
light: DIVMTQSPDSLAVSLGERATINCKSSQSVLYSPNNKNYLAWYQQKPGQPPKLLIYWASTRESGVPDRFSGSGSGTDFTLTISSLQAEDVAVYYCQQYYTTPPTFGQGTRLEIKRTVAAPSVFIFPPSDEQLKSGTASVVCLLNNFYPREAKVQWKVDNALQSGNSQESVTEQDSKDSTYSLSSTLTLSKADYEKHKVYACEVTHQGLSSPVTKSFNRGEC
notes: also called Parental molecule; parental PMAB1
B3: PRNT1 (antibody, human IgG1, kappa)
heavy: B1 heavy with W105Y
light: B1 light
notes: also called parent PRNT1; parental molecule PRNT1
B4: MIAB151 (antibody, human IgG1, kappa)
heavy: B1 heavy with W105Y
light: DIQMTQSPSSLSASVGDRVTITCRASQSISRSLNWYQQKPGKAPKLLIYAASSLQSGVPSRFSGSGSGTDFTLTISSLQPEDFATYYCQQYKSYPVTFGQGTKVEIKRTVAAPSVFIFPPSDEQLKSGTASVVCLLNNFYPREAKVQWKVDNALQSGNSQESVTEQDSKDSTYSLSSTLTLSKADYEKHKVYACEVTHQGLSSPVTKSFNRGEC
B5: MIAB153 (antibody, human IgG1, kappa)
heavy: B1 heavy with W105Y
light: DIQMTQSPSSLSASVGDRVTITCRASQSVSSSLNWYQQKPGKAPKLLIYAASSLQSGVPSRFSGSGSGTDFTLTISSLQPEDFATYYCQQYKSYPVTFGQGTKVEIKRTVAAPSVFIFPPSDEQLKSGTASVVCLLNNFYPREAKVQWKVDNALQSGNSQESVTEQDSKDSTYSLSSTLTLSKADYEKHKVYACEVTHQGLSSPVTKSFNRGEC
B6: MIAB169 (antibody, human IgG1, kappa)
heavy: B1 heavy with W105I
light: B1 light
notes: Y105I variant; also called MIAB169-CHO; MIAB169-HEK

How the values were obtained:
Human MAdCAM [1] = target: T1, Human MAdCAM; assay: BLI Octet, AHC capture
Insulin [2] = target: T3, Insulin (UniProt P01308 25-54; P01308 90-110); assay: ELISA on insulin-coated plate
T3 construct: Polyreactivity antigen; mature insulin has A and B chains; also called human insulin

Insulin [3] = target: T3, Insulin; assay: ELISA on insulin-coated plate, 100 nM
Method: Non-specific DNA and Insulin binding is predictive of poor pharmacokinetics (PK). An immunosorbent plate was coated with dsDNA at a concentration of 1 μg/mL or Insulin at 5 μg/mL in PBS pH 7.4, 75 μl/well, and incubated overnight at 4° C. Wells were washed with PBS pH 7.4 containing 0.05% Tween-20 (wash buffer) three times, and then blocked with 200 μl/well 1% BSA in PBS pH 7.4 (block buffer) for two hours at room temperature. […] The diluted material was added to the DNA/insulin coated plate at 75 μl/well for 1 hour at room temperature. After three washes with wash buffer, a donkey anti-human FcY HRP conjugated polyclonal antibody, diluted to 1:5000 in assay buffer, was added to the plate at 75 μl/well for 1 hr at room temperature. After three washes with wash buffer and three washes with wash buffer (with no tween-20), the assay was developed with TMB, and stopped with 1N HCL. OD 450 nm was measured. The experiment included appropriate controls for non-specific binding of test articles to the plate/block in the absence of DNA or insulin.

Human MAdCAM [4] = target: T1, Human MAdCAM; assay: BLI Octet
mouse MAdCAM [5] = target: T2, mouse MAdCAM; assay: BLI Octet
mouse MAdCAM [6] = target: T2, mouse MAdCAM; assay: BLI Octet, AHC capture
cyno MAdCAM = target: T4, cyno MAdCAM (cyno); assay: BLI Octet, AHC capture
T4 construct: also called cynomolgus monkey MAdCAM-1

| Binder | binding result (Insulin [2]) | Insulin polyreactivity score (Insulin [3]) | Kd (Human MAdCAM [1]) | koff (Human MAdCAM [1]) | kon (Human MAdCAM [1]) | Kd (cyno MAdCAM) [nM] | also measured |
| --- | --- | --- | --- | --- | --- | --- | --- |
| B1 | no binding (tested: 100 nM) | 4.73 |  |  |  |  | binding result (Human MAdCAM [1]): no binding (tested: 1 µM) |
| B2 |  |  | 135 nM and 115 nM and 116 nM and 62.8 nM | 0.0341 s⁻¹ and 0.0351 s⁻¹ and 0.0276 s⁻¹ and 0.0365 s⁻¹ | 252000 M⁻¹ s⁻¹ and 306000 M⁻¹ s⁻¹ and 238000 M⁻¹ s⁻¹ and 581000 M⁻¹ s⁻¹ |  | Kd (Human MAdCAM [4]): 37.6 nM; koff (Human MAdCAM [4]): 0.0398 s⁻¹; kon (Human MAdCAM [4]): 1.06e+06 M⁻¹ s⁻¹; response (Human MAdCAM [4]): 0.0839; Kd (mouse MAdCAM [5]): 124 nM; koff (mouse MAdCAM [5]): 0.0463 s⁻¹; kon (mouse MAdCAM [5]): 374000 M⁻¹ s⁻¹; response (mouse MAdCAM [5]): 0.256; Kd (mouse MAdCAM [6]): 138 nM; koff (mouse MAdCAM [6]): 0.0204 s⁻¹; kon (mouse MAdCAM [6]): 148000 M⁻¹ s⁻¹; response (mouse MAdCAM [6]): 0.139 |
| B3 |  |  |  |  |  | 13 |  |
| B4 | no binding (tested: 100 nM) | 3.63 | 2960 nM | 0.292 s⁻¹ | 98700 M⁻¹ s⁻¹ |  |  |
| B5 | no binding (tested: 100 nM) | 2.46 | 8360 nM | 0.543 s⁻¹ | 64800 M⁻¹ s⁻¹ |  |  |
| B6 | no binding (tested: 100 nM) |  | 266 nM and 340 nM | 0.0738 s⁻¹ | 278000 M⁻¹ s⁻¹ | 153 | fold lower affinity than PRNT1 (Human MAdCAM [1]): 10 fold |
